The values below come from patent US20180346573A1 (I MAB, published 2018).

As a reminder, the EC50 is the concentration needed to bring the measured effect to its halfway point. Lower therefore signals an effect from little substance.

B1: Hu1210-8 (antibody, V domains shown)
VH: EVQLVESGGGLVKPGGSLRLSCAASGFTFSSYDMSWVRQAPGKGLEWVATISDGGGYIYYSDSVKGRFTISRDNAKNSLYLQMNSLRAEDTAVYYCAREFGKRYALDYWGQGTTVTVSS
VL: DIQMTQSPSSLSASVGDRVTITCKASQDVTPAVAWYQQKPGKSPKLLIYSTSSRYTGVPSRFSGSGSGTDFTFTISSLQPEDIATYYCQQHYTTPLTFGQGTKLEIK
B2: Hu1210-17 (antibody, V domains shown)
VH: B1 VH with K13Q, G44S, A88D, Y95I
VL: B1 VL with S43A
B3: Hu1210-27 (antibody, V domains shown)
VH: B1 VH with K13Q, Y95I, T114L
VL: DIQMTQSPSSLSASVGDRVTITCKASQDVTPAVAWYQQKPGKAPKLLIYSTSSRYTGVPSRFSGSGSGTDFTLTISSLQPEDFATYYCQQHYTTPLTFGQGTKLEIKR
B4: Hu1210-31 (antibody, V domains shown)
VH: B1 VH with K13Q, Y95I
VL: B3 VL
B5: Hu1210-36 (antibody, V domains shown)
VH: B1 VH with K13Q, A40T, G42E, G44S, S78N, Y95I, T114L
VL: B3 VL
B6: H1210 chimera (antibody, V domains shown)
VH: EVKLVESGGDLVKPGGSLKLSCAASGFTFSSYDMSWVRQTPEKSLEWVATISDGGGYIYYSDSVKGRFTISRDNAKNNLYLQMSSLRSEDTALYICAREFGKRYALDYWGQGTSVTVSS
VL: DIVMTQSHKFMSTSVGDRVSISCKASQDVTPAVAWYQQKPGQSPKLLIYSTSSRYTGVPDRFTGSGSGTDFTFTISSVQAEDLAVYYCQQHYTTPLTFGAGTKLELK
notes: also called chimeric antibody
B7: Hu1210-19 (antibody, V domains shown)
VH: B1 VH with V5L, K13Q, G44S, A75S, S78T, Y95I
VL: B1 VL
B8: Hu1210-3 (antibody, V domains shown)
VH: B1 VH with G44S, Y95I
VL: B1 VL with S43A
notes: Not the mouse mAb HL1210-3
B9: Hu1210-22 (antibody, V domains shown)
VH: B1 VH with K13Q, G44S, A88D, Y95I
VL: B1 VL
B10: Hu1210-14 (antibody, V domains shown)
VH: B1 VH with V5L, K13Q, G44S, A75S, S78T, Y95I
VL: B1 VL with S43A
B11: Hu1210-16 (antibody, V domains shown)
VH: B1 VH with K13Q, A88D
VL: B1 VL with S43A

Where a chain is given by its changes, count along the chain named.

For the first assay, the target named is human PD-L1 expressed on CHOK1 cells (PDL1-CHOK1 cell line) (human) (UniProt Q9NZQ7). Put plainly: FACS on PDL1-CHOK1 cells, MFI of Alexa 488 anti-human IgG; EC50 table under the graph, unit from the x axis Antibodies(nM); fit value of a flat control curve, see non_binding.
Sequence of human PD-L1 expressed on CHOK1 cells (PDL1-CHOK1 cell line) (human) (Q9NZQ7 19-290): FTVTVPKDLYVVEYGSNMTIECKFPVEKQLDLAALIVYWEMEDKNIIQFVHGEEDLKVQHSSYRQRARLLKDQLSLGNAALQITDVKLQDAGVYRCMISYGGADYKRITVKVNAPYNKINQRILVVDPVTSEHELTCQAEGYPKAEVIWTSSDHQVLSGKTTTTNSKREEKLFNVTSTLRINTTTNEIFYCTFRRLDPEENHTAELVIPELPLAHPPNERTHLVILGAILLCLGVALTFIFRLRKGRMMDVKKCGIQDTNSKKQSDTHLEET
Hu IgG (antibody) had an EC50 of 9.55 µM.

The target in another assay is T1, human PD-L1 expressed on CHOK1 cells (PDL1-CHOK1 cell line) (human, UniProt Q9NZQ7 19-290).
T1 construct: whole, on cells; also called PDL1-CHOK1 cells; PD-L1 expressed on mammalian cells
T1 sequence (Q9NZQ7 19-290): as above
Put plainly: FACS receptor blocking: PDL1-CHOK1 cells, competitor Bio-PD1 (30 µg/ml). As to the method:
To evaluate the blocking effect of humanized antibodies on human PD-L1 expressed on mammalian cells to bind to its receptor PD-1, the FACS-based receptor blocking assay was employed. Briefly, PDL1-CHOK1 cells were firstly incubated with 3-fold serious diluted HL1210-3 mouse mAb starting at 20 μg/ml at RT for 1 hour. After wash by FACS buffer (PBS with 2% FBS), the biotin-labeled huPD-1 were added to each well and incubated at RT for 1 hour. Then, the Streptavidin-PE were added to each well for 0.5 hour post twice wash with FACS buffer. The mean florescence intensity (MFI) of PE were evaluated by FACSAriaIII.
Take B1: the TOP was 86.3%.
The same measure, in the same setting: for B2 the value was 80.9%.
Still for that read-out and setting: for B3 the value was 104%.
Still for that read-out and setting: next, B4: 92.9%; B5: 91.8%.
As for B6, the TOP stood at 87.2%.
Still for that read-out and setting: next, B7: 87.5%; B8: 84.3%; B9: 85.8%.
Regarding B10, the TOP worked out at 79.6%.
Same read-out and setting: next, B11: 88%.
